This passage reports stoichiometry N results from paper PMC10784701.

The assay deals with RedM, N,N-dimethyltransferase of the reductasporine biosynthetic pathway. Nature of the assay: SEC; size-exclusion chromatography of purified RedM in solution (Fig. S3); conditions of this run not shown. For orientation: Size exclusion chromatography separates by hydrodynamic size, large species first.

For the substance “RedM, N,N-dimethyltransferase of the reductasporine biosynthetic pathway (enzyme)”, the stoichiometry N (in general, a count of units in the complex or per binding partner) amounted to 2.
